Substrate: CN(C)C(=N)NCCC[C@H](N)C(=O)O
Assay: enzyme kinetics of refolded recombinant enzyme
Format: biochemical, Homo sapiens
Settings: authors' own initial, unpublished results; assay conditions not told

B1: recombinant human DDAH-2 (Homo sapiens) (protein)
chain: MGTPGEGLGRCSHALIRGVPESLASGEGAGAGLPALDLAKAQREHGVLGGKLRQRLGLQLLELPPEESLPLGPLLGDTAVIQGDTALITRPWSPARRPEVDGVRKALQDLGLRIVEIGDENATLDGTDVLFTGREFFVGLSKWTNHRGAEIVADTFRDFAVSTVPVSGPSHLRGLCGMGGPRTVVAGSSDAAQKAVRAMAVLTDHPYASLTLPDDAAADCLFLRPGLPGVPPFLLHRGGGDLPNSQEALQKLSDVTLVPVSCSELEKAGAGLSSLCLVLSTRPHS
Km: 16 µM

— paper PMC2767407
